Laboratory results as given in PMC7567794 (Scientific Reports, 2020).
Residue numbers refer to the chain shown, from its start. In names and notes the source's numbering stands.

B1: D3h44 Fab L-H91E (Fab, V domains shown)
VH: EVQLVESGGGLVQPGGSLRLSCAASGFNIKEYYMHWVRQAPGKGLEWVGLIDPEQGNTIYDPKFQDRATISADNSKNTAYLQMNSLRAEDTAVYYCARDTAAYFDYWGQGTLVTVSS
VL: DIQMTQSPSSLSASVGDRVTITCRASRDIKSYLNWYQQKPGKAPKVLIYYATSLAEGVPSRFSGSGSGTDYTLTISSLQPEDFATYYCLQEGESPWTFGQGTKVEIK
notes: as the heavy chain of m2 (PDB 1JPS chain H); as the light chain of m2 (PDB 1JPS chain L) with the stated change; Tag as for m2; source: ExpiCHO, purified (Ni-NTA, SEC)
B2: D3h44 Fab H-I59H (Fab, V domains shown)
VH: B1 VH with I59H
VL: B1 VL with E91H
notes: as the heavy chain of m2 (PDB 1JPS chain H) with the stated change; as the light chain of m2 (PDB 1JPS chain L); Tag as for m2; source: ExpiCHO, purified (Ni-NTA, SEC)
B3: D3h44 Fab H-N57Y (Fab, V domains shown)
VH: B1 VH with N57Y
VL: B1 VL with E91H
notes: as for B2
B4: D3h44 Fab L-H91N (Fab, V domains shown)
VH: B1 VH
VL: B1 VL with E91N
notes: as for B1
B5: D3h44 Fab H-K30Q/H-E54H double-point mutant (Fab, V domains shown)
VH: B1 VH with K30Q, E54H
VL: B1 VL with E91H
notes: as the heavy chain of m2 (PDB 1JPS chain H) with the stated changes; as the light chain of m2 (PDB 1JPS chain L); Tag as for m2; source: ExpiCHO, purified (Ni-NTA, SEC)
B6: D3h44 Fab L-H91S (Fab, V domains shown)
VH: B1 VH
VL: B1 VL with E91S
notes: as for B1
B7: D3h44 Fab H-K30Q (Fab, V domains shown)
VH: B1 VH with K30Q
VL: B1 VL with E91H
notes: as for B2
B8: D3h44 Fab H-Y33Q/H-A101R double-point mutant (Fab, V domains shown)
VH: B1 VH with Y33Q, A101R
VL: B1 VL with E91H
notes: as for B5
B9: D3h44 Fab L-H91Q (Fab, V domains shown)
VH: B1 VH
VL: B1 VL with E91Q
notes: as for B1
B10: D3h44 Fab L-N34D (Fab, V domains shown)
VH: B1 VH
VL: B1 VL with N34D, E91H
notes: as for B1
B11: D3h44 Fab H-A101S/H-A102H double-point mutant (Fab, V domains shown)
VH: B1 VH with A101S, A102H
VL: B1 VL with E91H
notes: as for B5
B12: D3h44 Fab L-N34D/L-H91S double-point mutant (Fab, V domains shown)
VH: B1 VH
VL: B1 VL with N34D, E91S
notes: as the heavy chain of m2 (PDB 1JPS chain H); as the light chain of m2 (PDB 1JPS chain L) with the stated changes; Tag as for m2; source: ExpiCHO, purified (Ni-NTA, SEC)
B13: D3h44 Fab H-A101V (Fab, V domains shown)
VH: B1 VH with A101V
VL: B1 VL with E91H
notes: as for B2

The binders below were run against T1, tissue factor (S33 to E251) (Homo sapiens, UniProt P13726) (assay: SPR; Biacore 8K; TF immobilised on a CM5 chip by amine coupling (450-750 response units); Fab as analyte; single-cycle kinetics, association 120 s, dissociation 1800 s, no regeneration; PBS with 0.005% Tween-20; three measurements). Settings: both partners purified.
T1 construct: tissue factor (TF), residues S33 to E251; the antigen of the antibody D3h44 in PDB 1JPS; The tag was removed with Ulp1; tag-free TF was used; Antigen residues named in the text (S202, K169, P194, I152) follow the numbering of PDB 1JPS, not that of the construct limits; also called TF; antigen; source: E. coli BL21 (DE3), purified (Ni-NTA, SEC); not shown: His6, N-terminal, cleaved; SUMO, …
T1 sequence (P13726 33-251): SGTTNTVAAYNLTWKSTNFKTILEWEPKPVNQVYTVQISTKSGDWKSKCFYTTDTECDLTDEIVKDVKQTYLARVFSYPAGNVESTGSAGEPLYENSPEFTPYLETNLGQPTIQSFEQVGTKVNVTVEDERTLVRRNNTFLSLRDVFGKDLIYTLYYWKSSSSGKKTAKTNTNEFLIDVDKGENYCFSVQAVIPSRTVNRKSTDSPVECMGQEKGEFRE

Binder	Kd [nM]	koff [s⁻¹]	kon [M⁻¹ s⁻¹]	binding result
B1	0.02	2.7e-05	1.4e+06	–
B2	15	0.038	3.6e+06	–
B3	0.015	1.8e-05	1.3e+06	–
B4	0.2	0.00026	1.3e+06	–
B5	0.029	2.6e-05	940000	–
B6	17	0.059	1.6e+07	–
B7	0.097	0.00014	1.5e+06	–
B8	–	–	–	no binding
B9	0.23	0.00038	1.7e+06	–
B10	0.31	0.00062	2e+06	–
B11	0.15	0.00018	1.2e+06	–
B12	0.025	3e-05	1.2e+06	–
B13	0.14	0.00018	1.3e+06	–
